Reference: the supplement of paper PMC11246515
± gives the standard deviation of the averaged measurements.

Experiment: total protein half-life in vivo (active degradation + dilution); higher = more stable protein
[1] = E. coli NCM3722 delta-clpP delta-lon delta-hslV, growth: N-lim chemostat, doubling time 6 h
[2] = wild type E. coli NCM3722, growth: C-lim chemostat, doubling time 3 h
[3] = wild type E. coli NCM3722, growth: C-lim chemostat, doubling time 6 h
[4] = wild type E. coli NCM3722, growth: N-lim chemostat, doubling time 6 h
[5] = E. coli NCM3722 delta-clpP, growth: N-lim chemostat, doubling time 6 h
[6] = E. coli NCM3722 delta-hslV, growth: N-lim chemostat, doubling time 6 h
[7] = E. coli NCM3722 delta-lon, growth: N-lim chemostat, doubling time 6 h
[8] = E. coli NCM3722 delta-smpB, growth: N-lim chemostat, doubling time 6 h
[9] = wild type E. coli NCM3722, growth: C-lim chemostat, doubling time 12 h
[10] = wild type E. coli NCM3722, growth: N-lim chemostat, doubling time 12 h
[11] = wild type E. coli NCM3722, growth: P-lim chemostat, doubling time 6 h
[12] = wild type E. coli NCM3722, growth: P-lim chemostat, doubling time 12 h

Sequence	total protein half-life in vivo [1] [h]	total protein half-life in vivo [2] [h]	total protein half-life in vivo [3] [h]	total protein half-life in vivo [4] [h]	total protein half-life in vivo [5] [h]	total protein half-life in vivo [6] [h]	total protein half-life in vivo [7] [h]	total protein half-life in vivo [8] [h]	total protein half-life in vivo [9] [h]	total protein half-life in vivo [10] [h]	total protein half-life in vivo [11] [h]	total protein half-life in vivo [12] [h]
MSTQYETQGYTINNAGRRLVVDPITRIEGHMRCEVNINDQNVITNAVSCGTMFRGLEIILQGRDPRDAWAFVERICGVCTGVHALASVYAIEDAIGIKVPDNANIIRNIMLATLWCHDHLVHFYQLAGMDWIDVLDALKADPRKTSELAQSLSSWPKSSPGYFFDVQNRLKKFVEGGQLGIFRNGYWGHPQYKLPPEANLMGFAHYLEALDFQREIVKIHAVFGGKNPHPNWIVGGMPCAINIDESGAVGAVNMERLNLVQSIITRTADFINNVMIPDALAIGQFNKPWSEIGTGLSDKCVLSYGAFPDIANDFGEKSLLMPGGAVINGDFNNVLPVDLVDPQQVQEFVDHAWYRYPNDQVGRHPFDGITDPWYNPGDVKGSDTNIQQLNEQERYSWIKAPRWRGNAMEVGPLARTLIAYHKGDAATVESVDRMMSALNLPLSGIQSTLGRILCRAHEAQWAAGKLQYFFDKLMTNLKNGNLATASTEKWEPATWPTECRGVGFTEAPRGALGHWAAIRDGKIDLYQCVVPTTWNASPRDPKGQIGAYEAALMNTKMAIPEQPLEILRTLHSFDPCLACSTHVLGDDGSELISVQVR [P0ACD8]	4.51 ± 0.84	–	–	–	–	–	–	–	–	–	–	–
MKLIITEDYQEMSRVAAHHLLGYMSKTRRVNLAITAGSTPKGMYEYLTTLVKGKPWYDNCYFYNFDEIPFRGKEGEGVTITNLRNLFFTPAGIKEENIQKLTIDNYREHDQKLAREGGLDLVVLGLGADGHFCGNLPNTTHFHEQTVEFPIQGEMVDIVAHGELGGDFSLVPDSYVTMGPKSIMAAKNLLIIVSGAGKAQALKNVLQGPVTEDVPASVLQLHPSLMVIADKAAAAELALG	5.36 ± 0.6	2.47	3.24	2.68	–	–	–	–	–	–	–	–
MTTQVPPSALLPLNPEQLARLQAATTDLTPTQLAWVSGYFWGVLNQQPAALAATPAPAAEMPGITIISASQTGNARRVAEALRDDLLAAKLNVKLVNAGDYKFKQIASEKLLIVVTSTQGEGEPPEEAVALHKFLFSKKAPKLENTAFAVFSLGDSSYEFFCQSGKDFDSKLAELGGERLLDRVDADVEYQAAASEWRARVVDALKSRAPVAAPSQSVATGAVNEIHTSPYSKDAPLVASLSVNQKITGRNSEKDVRHIEIDLGDSGMRYQPGDALGVWYQNDPALVKELVELLWLKGDEPVTVEGKTLPLNEALQWHFELTVNTANIVENYATLTRSETLLPLVGDKAKLQHYAATTPIVDMVRFSPAQLDAEALINLLRPLTPRLYSIASSQAEVENEVHVTVGVVRYDVEGRARAGGASSFLADRVEEEGEVRVFIEHNDNFRLPANPETPVIMIGPGTGIAPFRAFMQQRAADEAPGKNWLFFGNPHFTEDFLYQVEWQRYVKDGVLTRIDLAWSRDQKEKVYVQDKLREQGAELWRWINDGAHIYVCGDANRMAKDVEQALLEVIAEFGGMDTEAADEFLSELRVERRYQRDVY	5.2 ± 0.35	2.808 ± 0.02	4.99 ± 0.42	3.58 ± 0.06	3.456 ± 0.027	3.67 ± 0.1	4.31 ± 0.044	3.24 ± 0.067	8.53 ± 0.79	5.215 ± 0.029	4.99 ± 0.36	8.98 ± 1
MLPSISINNTSAAYPESINENNNDEVNGLVQEFKNLFNGKEGISTCIKHLLELIKNAIRVNDDPYRFNINNSSVTYIDIDSNDTDHITIGIDNQEPIELPANYKDKELVRTIINDNIVEKTHDINNKEMIFSALKEIYDGDPGFIFDKISHKLRHTVTEFDESGKSEPTDLFTWYGKDKKGDSLAIVIKNKNGNDYLSLGYYDQDDYHIQRGIRINGDSLTQYCSENARSASAWFESSKAIMAESFATGSDHQVVNELNGERLREPNDVFKRYGRAIRYDFQVDDAKYKCDHLKEIVSTLVGNKINVGHSQKIYKHFKDLEGKIEERLQNRQAEYQNEINQPSAPGVNFDDI	–	–	–	5.3	–	–	–	–	–	–	–	–
MSEKLQVVTLLGSLRKGSFNGMVARTLPKIAPASMEVNALPSIADIPLYDADVQQEEGFPATVEALAEQIRQADGVVIVTPEYNYSVPGGLKNAIDWLSRLPDQPLAGKPVLIQTSSMGVIGGARCQYHLRQILVFLDAMVMNKPEFMGGVIQNKVDPQTGEVIDQGTLDHLTGQLTAFGEFIQRVKI [P0AGE6]	6.73 ± 1.1	3.116 ± 0.014	5.74 ± 0.21	5.27 ± 0.43	5.46 ± 0.56	5.61 ± 0.31	5.83 ± 0.28	5.24 ± 0.12	11.1 ± 0.21	9.39 ± 0.36	5.31 ± 0.077	12.1 ± 0.48
MKNASTVSEDTASNQEPTLHRGLHNRHIQLIALGGAIGTGLFLGIGPAIQMAGPAVLLGYGVAGIIAFLIMRQLGEMVVEEPVSGSFAHFAYKYWGPFAGFLSGWNYWVMFVLVGMAELTAAGIYMQYWFPDVPTWIWAAAFFIIINAVNLVNVRLYGETEFWFALIKVLAIIGMIGFGLWLLFSGHGGEKASIDNLWRYGGFFATGWNGLILSLAVIMFSFGGLELIGITAAEARDPEKSIPKAVNQVVYRILLFYIGSLVVLLALYPWVEVKSNSSPFVMIFHNLDSNVVASALNFVILVASLSVYNSGVYSNSRMLFGLSVQGNAPKFLTRVSRRGVPINSLMLSGAITSLVVLINYLLPQKAFGLLMALVVATLLLNWIMICLAHLRFRAAMRRQGRETQFKALLYPFGNYLCIAFLGMILLLMCTMDDMRLSAILLPVWIVFLFMAFKTLRRK	5.66	–	–	–	5.51	–	–	5.23 ± 0.36	–	–	–	> 16
MNIQALLSEKVRQAMIAAGAPADCEPQVRQSAKVQFGDYQANGMMAVAKKLGMAPRQLAEQVLTHLDLNGIASKVEIAGPGFINIFLDPAFLAEHVQQALASDRLGVATPEKQTIVVDYSAPNVAKEMHVGHLRSTIIGDAAVRTLEFLGHKVIRANHVGDWGTQFGMLIAWLEKQQQENAGEMELADLEGFYRDAKKHYDEDEEFAERARNYVVKLQSGDEYFREMWRKLVDITMTQNQITYDRLNVTLTRDDVMGESLYNPMLPGIVADLKAKGLAVESEGATVVFLDEFKNKEGEPMGVIIQKKDGGYLYTTTDIACAKYRYETLHADRVLYYIDSRQHQHLMQAWAIVRKAGYVPESVPLEHHMFGMMLGKDGKPFKTRAGGTVKLADLLDEALERARRLVAEKNPDMPADELEKLANAVGIGAVKYADLSKNRTTDYIFDWDNMLAFEGNTAPYMQYAYTRVLSVFRKAEIDEEQLAAAPVIIREDREAQLAARLLQFEETLTVVAREGTPHVMCAYLYDLAGLFSGFYEHCPILSAENEEVRNSRLKLAQLTAKTLKLGLDTLGIETVERM	5.58 ± 1.2	3.13 ± 0.036	5.89 ± 0.47	4.48 ± 0.06	4.719 ± 0.0071	4.73 ± 0.089	5.12 ± 0.092	4.66 ± 0.21	10.2 ± 0.2	7.82 ± 0.086	6.03 ± 0.33	12 ± 0.36
